Experimental findings from paper PMC3230568 (2011) are described below.

The experiment deals with p53 DBD 94-288 (Homo sapiens, UniProt P04637). Nature of the experiment: atomic force spectroscopy.
p53 DBD 94-288, sequence (P04637 94-288): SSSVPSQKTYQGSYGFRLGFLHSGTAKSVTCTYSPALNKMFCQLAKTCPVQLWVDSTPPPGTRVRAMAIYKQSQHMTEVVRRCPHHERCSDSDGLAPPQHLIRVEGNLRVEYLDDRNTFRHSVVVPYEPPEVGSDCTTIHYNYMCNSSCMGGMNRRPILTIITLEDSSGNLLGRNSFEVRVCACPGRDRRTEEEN

B1: p28 (azurin fragment, Cys-p28) 50-77 (peptide)
chain: TVNLSHPGNLPKNVMGHNWVLSTAADMQ
As for B1, the Kd came out at 630 nM.
